Assay [1] has as its target T1, huNav1.7α (human Nav1.7 alpha subunit, expressed without β subunits) (human, UniProt Q15858 1-1988).
T1 construct: also called HEK293 human Nav1.7α; HEKa Nav1.7α
Nature of the assay: binding FACS, HEKa cells.

The target in assay [2] is T2, huNav1.7α + β1 (human Nav1.7α co-expressed with Navβ1) (human, UniProt Q15858 1-1988; Q07699 19-218).
T2 construct: also called HEK293 human Nav1.7α + β1; HEKa/β1 Nav1.7α
Nature of the assay: binding FACS, HEKa/β1 cells.

The target in assay [3] is T3, huNav157 chimera 14 + β1-β2-β3 (human).
T3 construct: Chimera of huNav1.7α (extracellular loops and transmembrane helices) and huNav1.5α (intracellular loops); also called Nav157ch14-β1-β2-β3; huNav157 chimera 14-beta1-beta2-beta3
The experiment in a line: binding FACS, HEK FlpIn cells.

The target of the next assay is T4, huNav157 chimera 14 (human).
T4 construct: Chimera without β subunits; also called Nav157ch14
Nature of the assay: binding FACS, HEK FlpIn cells.

The target of assay [4] is T1, huNav1.7α (human Nav1.7 alpha subunit, …). The experiment in a line: binding FACS, huNav1.7α without β; minus = weaker than reference.
Assay [5] concerns the target T5, huNav1.7α+β1 (human, UniProt Q15858 1-1988; Q07699 19-218).
T5 construct: also called huNav1.7-beta1; HEKa/β1
The experiment in a line: binding FACS, HEK293 cells. The procedure, abridged: (§1)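 Purified FLAG3-tagged ISVDs incubated with cells (1×10^5 cells/well) in PBS/10% FBS/NaN₃ for 30 minutes at 4° C. Bound ISVD detected via murine anti-Flag by flow cytometry; dead cells excluded with 1 μg/mL propidium iodide. Crude periplasmic extracts were also screened for huNav1.7α binding without huNav1.5a binding.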

The next assay deals with T6, huNav1.3α (human, UniProt Q9NY46 1-2000).
T6 construct: also called huNav1.3 (alpha subunit)
Nature of the assay: binding FACS on stable cell lines.

In the next assay the target is T7, huNav1.4α (human, UniProt P35499 1-1836).
T7 construct: also called huNav1.4 (alpha subunit)
The experiment in a line: binding FACS on stable cell lines.

Another assay concerns the target T8, huNav1.6α (human, UniProt Q9UQD0 1-1980).
T8 construct: also called huNav1.6 (alpha subunit)
Nature of the assay: binding FACS on stable cell lines.

For a further assay, the target named is T9, huNav1.8α (human, UniProt Q9Y5Y9 1-1956).
T9 construct: also called huNav1.8 (alpha subunit)
The experiment in a line: binding FACS on stable cell lines.

Another assay concerns the target huNav1.1α (human, UniProt P35498 1-2009). The experiment in a line: binding FACS on stable cell lines.
For another assay, the target named is T10, huNav1.2α (human, UniProt Q99250 1-2005).
T10 construct: also called huNav1.2 (alpha subunit)
Nature of the assay: binding FACS on stable cell lines.

Assay [6] addresses T11, huNav1.7α+β1-β2-β3 (human, UniProt Q15858 1-1988; Q07699 19-218; O60939 30-215; Q9NY72 23-215).
T11 construct: 5N11S variant; also called huNav1.7-beta1-beta2-beta3; huNav1.7α+Navβ1-Navβ2-Navβ3
The experiment in a line: binding FACS, CHO FlpIn cells. In outline:
as §1

Another assay deals with T12, rhNav1.7α+β1-β2-β3 (rhesus monkey α subunit with human β …).
T12 construct: P2A cleaves it into α, β1, β2, β3; also called rhNav1.7-beta1-beta2-beta3
The experiment in a line: binding FACS, CHO FlpIn cells. In outline: as §1

The target in assay [7] is T11, huNav1.7α+β1-β2-β3. The experiment in a line: binding FACS, HEK FlpIn cells. The procedure, abridged: as §1
The target of assay [8] is T13, huNav157chimera14+β1-β2-β3 (human, UniProt Q07699 19-218; O60939 30-215; Q9NY72 23-215).
T13 construct: HEK FlpIn line; also called huNav157 chimera 14-beta1-beta2-beta3; Nav157ch14-β1-β2-β3
The experiment in a line: binding FACS, HEK FlpIn cells. The procedure, abridged: as §1

Another assay addresses T14, huNav1.5α+β1-β2-β3 (human, UniProt Q14524 1-2016; A5A6L6 19-218; O60939 30-215; Q2KI11 23-215).
T14 construct: in the cell P2A cleaves it into α, β1, β2, β3; also called huNav1.5-beta1-beta2-beta3
Nature of the assay: binding FACS, HEK FlpIn cells. The procedure, abridged: as §1

Assay [9] deals with T15, huNav1.7(N146S, V194I, F276V, R277Q, E281V, V331M, E504D, D507E, S508N, N533S)-β1-β2-β3 (human, UniProt Q15858 1-1988; Q07699 19-218; O60939 30-215; Q9NY72 23-215).
T15 construct: Transiently on HEK293T cells; The text prints V1941 for V194I; also called chimeric variant of huNav1.7α with all DI huNav1.7α-rhNav1.7α polymorphisms
Nature of the assay: FACS on transiently transfected HEK293T cells. The procedure:
(§2) Binding of the ISVDs to cell-expressed Nav1.7α was detected via murine anti-Flag (Sigma, catalog #F1804). Briefly, cells were resuspended in FACS buffer (PBS, 10% FBS, NaN₃) and transferred to a 96-well V-bottom plate at 1×10^5 cells/well. Purified FLAG3-tagged ISVD was diluted in FACS buffer and added to the cells for 30 minutes at 4° C. […] Prior to the read-out, the samples were resuspended in 1 μg/mL propidium iodide (Sigma, catalog #P4170) to exclude dead cells. Between each step, the cells were centrifuged for 5 minutes at 200 grams and washed with 100 μL/well FACS buffer.
FACS binding studies (as described above) were performed on HEK293T cells transiently transfected with a chimeric variant of huNav1.7α in which all the huNav1.7α-rhNav1.7α polymorphisms of DI are present (N146S, V1941, F276V, R277Q, E281V, V331M, E504D, D507E, S508N, N533S). Replacing the huNav1.7α DI sequence for that of rhNav1.7α is sufficient to abolish the binding of F0103262CO2, F0103265B04, F0103262B06, and F0103265A11 to huNav1.7α, recapitulating the absence of binding on rhNav1.7α (see FIGS. 21A-21B).

Assay [10] deals with T13, huNav157chimera14+β1-β2-β3. The experiment in a line: binding FACS with purified FLAG3-HIS6 tagged ISVDs. The procedure:
as §2
Crude periplasmic extracts containing ISVDs from phage display selections (as described above) were screened in FACS for binding to huNav1.7α but not to huNav1.5a. […] As used in Table 8, the drawings, and throughout the description, Navβ1, Navβ2, and Navβ3 are human homologs unless specifically identified otherwise.

A further assay has as its target T16, huNav1.7α (human, UniProt Q15858 1-1988).
T16 construct: HEK cells expressing the α subunit alone; also called HEKa; HEK huNav1.7α
Nature of the assay: binding FACS, HEKa cells. In outline:
(§3)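 FLAG3-tagged ISVD, 30 min, 4° C, FACS buffer (PBS/10% FBS/NaN₃); 1×10^5 cells/well; detection murine anti-Flag; PI 1 μg/mL live gate; washes between steps.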

Assay [11] deals with T5, huNav1.7α+β1. The experiment in a line: binding FACS, HEKa/β1 cells. The procedure, abridged:
as §3

Assay [12] deals with T11, huNav1.7α+β1-β2-β3. Nature of the assay: binding FACS, HEK FlpIn cells. The source holds these as a separate data set.
For the next assay, the target named is rhNav1.7α (rhesus monkey, UniProt Q15858 1-1988 (human entry)). The experiment in a line: cell-based or functional assay.

One may read the EC50 as the concentration at which the effect is half-maximal.

T6 sequence (Q9NY46 whole entry): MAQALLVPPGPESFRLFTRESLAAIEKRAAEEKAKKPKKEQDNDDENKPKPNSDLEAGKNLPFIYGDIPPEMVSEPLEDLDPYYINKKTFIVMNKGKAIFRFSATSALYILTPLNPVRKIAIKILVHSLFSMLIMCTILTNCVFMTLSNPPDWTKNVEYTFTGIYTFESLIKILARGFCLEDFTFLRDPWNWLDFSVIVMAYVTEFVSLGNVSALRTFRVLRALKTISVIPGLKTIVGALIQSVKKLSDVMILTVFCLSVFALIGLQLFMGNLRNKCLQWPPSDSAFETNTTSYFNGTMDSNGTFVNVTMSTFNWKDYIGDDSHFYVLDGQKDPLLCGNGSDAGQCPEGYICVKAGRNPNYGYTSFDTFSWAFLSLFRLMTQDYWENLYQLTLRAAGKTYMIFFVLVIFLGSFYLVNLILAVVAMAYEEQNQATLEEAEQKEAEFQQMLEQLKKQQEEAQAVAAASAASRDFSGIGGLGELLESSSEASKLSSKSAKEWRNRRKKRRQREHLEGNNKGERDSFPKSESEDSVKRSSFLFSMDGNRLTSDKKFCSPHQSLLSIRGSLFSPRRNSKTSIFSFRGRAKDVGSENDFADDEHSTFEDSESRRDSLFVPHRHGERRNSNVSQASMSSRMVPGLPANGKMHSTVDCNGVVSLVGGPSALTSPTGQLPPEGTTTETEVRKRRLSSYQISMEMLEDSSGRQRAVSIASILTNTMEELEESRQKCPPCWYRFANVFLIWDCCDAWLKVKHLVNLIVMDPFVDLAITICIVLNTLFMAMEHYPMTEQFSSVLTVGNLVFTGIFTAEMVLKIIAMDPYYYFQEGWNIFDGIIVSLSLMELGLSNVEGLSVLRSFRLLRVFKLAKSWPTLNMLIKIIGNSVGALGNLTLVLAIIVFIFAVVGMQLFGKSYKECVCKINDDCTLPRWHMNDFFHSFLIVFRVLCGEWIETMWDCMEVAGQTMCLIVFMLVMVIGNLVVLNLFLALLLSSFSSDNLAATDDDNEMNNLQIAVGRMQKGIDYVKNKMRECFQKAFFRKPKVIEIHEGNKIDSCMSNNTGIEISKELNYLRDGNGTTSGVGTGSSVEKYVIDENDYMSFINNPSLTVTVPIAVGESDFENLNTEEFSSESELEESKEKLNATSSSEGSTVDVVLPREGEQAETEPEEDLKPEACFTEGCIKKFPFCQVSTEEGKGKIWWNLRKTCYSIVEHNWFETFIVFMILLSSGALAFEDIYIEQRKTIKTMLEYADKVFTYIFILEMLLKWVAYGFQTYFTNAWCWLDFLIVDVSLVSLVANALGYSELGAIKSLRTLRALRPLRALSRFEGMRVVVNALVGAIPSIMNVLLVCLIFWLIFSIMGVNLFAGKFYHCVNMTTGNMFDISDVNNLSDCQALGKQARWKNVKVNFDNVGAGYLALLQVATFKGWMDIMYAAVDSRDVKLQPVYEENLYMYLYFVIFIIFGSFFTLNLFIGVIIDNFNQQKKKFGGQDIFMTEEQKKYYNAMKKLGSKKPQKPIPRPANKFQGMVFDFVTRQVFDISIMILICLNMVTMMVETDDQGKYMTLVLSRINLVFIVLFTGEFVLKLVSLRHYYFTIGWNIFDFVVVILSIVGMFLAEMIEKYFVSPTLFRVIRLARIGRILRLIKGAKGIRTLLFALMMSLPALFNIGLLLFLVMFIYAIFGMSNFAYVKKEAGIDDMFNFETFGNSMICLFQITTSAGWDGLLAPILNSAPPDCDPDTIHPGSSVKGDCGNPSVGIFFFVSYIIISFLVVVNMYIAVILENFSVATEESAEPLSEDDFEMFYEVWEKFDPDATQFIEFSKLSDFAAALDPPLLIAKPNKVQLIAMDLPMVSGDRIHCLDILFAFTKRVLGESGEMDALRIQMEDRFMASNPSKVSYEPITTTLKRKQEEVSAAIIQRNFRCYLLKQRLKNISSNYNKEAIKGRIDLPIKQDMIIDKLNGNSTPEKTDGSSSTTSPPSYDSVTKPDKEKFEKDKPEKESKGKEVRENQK
T7 sequence (P35499 whole entry): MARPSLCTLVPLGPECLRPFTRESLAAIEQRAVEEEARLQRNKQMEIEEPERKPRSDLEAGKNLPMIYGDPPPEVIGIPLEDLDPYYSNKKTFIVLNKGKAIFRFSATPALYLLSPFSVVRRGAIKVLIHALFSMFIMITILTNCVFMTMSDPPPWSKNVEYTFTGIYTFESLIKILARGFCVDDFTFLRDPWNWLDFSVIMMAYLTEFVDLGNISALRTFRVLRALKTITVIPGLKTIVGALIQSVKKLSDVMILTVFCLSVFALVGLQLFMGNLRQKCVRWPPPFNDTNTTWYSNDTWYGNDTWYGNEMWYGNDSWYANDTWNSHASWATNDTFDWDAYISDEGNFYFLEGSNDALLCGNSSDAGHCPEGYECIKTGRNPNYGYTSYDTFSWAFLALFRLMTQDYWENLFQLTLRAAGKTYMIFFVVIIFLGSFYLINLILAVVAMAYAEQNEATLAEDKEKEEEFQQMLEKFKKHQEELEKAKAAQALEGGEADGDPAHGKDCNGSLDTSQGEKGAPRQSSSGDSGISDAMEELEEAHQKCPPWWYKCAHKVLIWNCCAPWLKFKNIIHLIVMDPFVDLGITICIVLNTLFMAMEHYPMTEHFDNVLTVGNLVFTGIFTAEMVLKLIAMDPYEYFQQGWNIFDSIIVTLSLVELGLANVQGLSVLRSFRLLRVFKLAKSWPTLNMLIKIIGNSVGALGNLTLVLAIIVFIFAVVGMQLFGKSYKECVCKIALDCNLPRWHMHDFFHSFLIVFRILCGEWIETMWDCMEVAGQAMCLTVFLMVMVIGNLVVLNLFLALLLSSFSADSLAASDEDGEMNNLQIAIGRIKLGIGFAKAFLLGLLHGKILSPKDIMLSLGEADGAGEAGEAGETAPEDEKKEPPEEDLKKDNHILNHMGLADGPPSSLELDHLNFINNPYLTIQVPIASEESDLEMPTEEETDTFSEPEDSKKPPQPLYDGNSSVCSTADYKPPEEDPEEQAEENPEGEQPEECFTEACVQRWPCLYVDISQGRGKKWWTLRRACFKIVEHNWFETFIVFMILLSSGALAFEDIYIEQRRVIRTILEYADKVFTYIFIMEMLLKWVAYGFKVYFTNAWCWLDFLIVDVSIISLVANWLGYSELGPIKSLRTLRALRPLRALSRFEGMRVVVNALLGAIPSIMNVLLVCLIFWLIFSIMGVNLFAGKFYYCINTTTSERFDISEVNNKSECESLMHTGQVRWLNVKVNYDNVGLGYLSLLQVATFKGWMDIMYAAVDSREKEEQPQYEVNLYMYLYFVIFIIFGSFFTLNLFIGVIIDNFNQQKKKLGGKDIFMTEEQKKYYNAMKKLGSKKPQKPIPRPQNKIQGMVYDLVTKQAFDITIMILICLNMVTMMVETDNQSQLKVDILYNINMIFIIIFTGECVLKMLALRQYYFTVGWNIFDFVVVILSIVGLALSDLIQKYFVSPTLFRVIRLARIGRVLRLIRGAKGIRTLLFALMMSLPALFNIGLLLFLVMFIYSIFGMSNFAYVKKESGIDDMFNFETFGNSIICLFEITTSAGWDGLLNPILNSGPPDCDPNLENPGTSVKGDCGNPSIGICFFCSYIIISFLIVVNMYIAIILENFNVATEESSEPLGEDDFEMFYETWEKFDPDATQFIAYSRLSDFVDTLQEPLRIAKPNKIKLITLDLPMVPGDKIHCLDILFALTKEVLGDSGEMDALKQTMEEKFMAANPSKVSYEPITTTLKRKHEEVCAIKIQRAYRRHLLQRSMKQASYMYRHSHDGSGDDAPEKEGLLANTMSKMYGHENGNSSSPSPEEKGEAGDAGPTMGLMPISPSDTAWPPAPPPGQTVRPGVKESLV

B1: F010301647 (VHH)
VHH: EVQLVESGGGVVQPGGSLRLSCDASGRILRIGYMRWHRQGAGKQRELVARITDDSATDYADSVKGRFTISRDNAKNTVYLQMNSLRPEDTALYYCEALVTASVRGGSIHSGTYWGQGTLVTVSS
notes: also called F0103387G05(L11V, A14P, F47L, N82bS, N83R, V89L, R105Q); F47L
Regarding B1, the Bmax turned out to be 75% in assay [1] and 80% with huNav157 chimera 14. For the same molecule, the EC50 in assay [1] came to 8 nM; in [2], 4 nM; in [3], 4.7 nM; in the assay with huNav157 chimera 14 it was 12 nM. Also, the “EC50 fold change compared to reference” value in [4] was -2 fold.

B2: F0103262B06 (parental)-FLAG-HIS6 (VHH)
VHH: EVQLVESGGGLVQPGGSLRLSCAGSTRTFSTYAMGWFRQAPGREREFVAHINFSGSSTRYADSVKGRFTISRDNAKNMGYLQMNSLKPEDTAVYYCAARWVAGPPRYDYEYWGQGTLVTVSS
Turning to B2, the concentration for a half-maximal effect (EC50) in the assay with huNav1.7α+β1 [5] was 20 nM; with huNav1.7α+β1-β2-β3 [6], 19 nM; with huNav1.7α+β1-β2-β3 [7], 25 nM; in assay [8] it was 16 nM. The binding result with huNav1.3α, with huNav1.4α, in the assay with huNav1.6α, with huNav1.8α, with huNav1.1α and with huNav1.2α was “no binding” throughout. In addition, the binding result with rhNav1.7α+β1-β2-β3 is reported as “no binding”; with huNav1.5α+β1-β2-β3, “no binding”; in assay [9] it was “no binding (tested: 1 µM)”.

B3: F0103362B08 (parental)-FLAG-HIS6 (VHH)
VHH: EVQLVESGGGLVQAGGSLRLSCAASVRPFSTSAMGWFRQAPEKEREAVAGILWNGIVTYYADSVKGRFTISRDNAKNEVYLQMNKLKPEDTAVYYCALDRDYGGRSFSAYEYEYWGQGTLVTVSS
As for B3, the values for the EC50 with huNav1.7α+β1 [5], with huNav1.7α+β1-β2-β3 [6] and with huNav1.7α+β1-β2-β3 [7] were 59 nM, 110 nM and 42 nM, respectively. In addition, the binding result with huNav1.3α, with huNav1.4α, in the assay with huNav1.6α, with huNav1.8α, with huNav1.1α and with huNav1.2α was “no binding” in each case. For the same molecule, the binding result in the assay with rhNav1.7α+β1-β2-β3 is listed as “no binding”; with huNav1.5α+β1-β2-β3, “no binding”; in assay [10] it was “binds”.

B4: F0103265A11 (parental)-FLAG-HIS6 (VHH)
VHH: EVQLVESGGGLVQPGGSLRLSCAASGMLFNANTQGWYRQAPGKQRELVAFIFSGGYTNYVDSVKGRFTISRDNAKRTMYLQMNSLKPEDSAIYYCSLSRYLGQGTLVTVSS
notes: also called F01033265A11
Turning to B4, the binding result in the assay with huNav1.7α, with huNav1.3α, with huNav1.4α, with huNav1.6α, with huNav1.8α and with huNav1.1α was “no binding” each time. The binding result in the assay with huNav1.2α is listed as “no binding”; in the assay with rhNav1.7α+β1-β2-β3, “no binding”; with huNav1.5α+β1-β2-β3 it was “no binding”; in [9], “no binding (tested: 1 µM)”. In addition, the EC50 in the assay with huNav1.7α+β1 [5] is 8.4 nM; with huNav1.7α+β1 [11], 11 nM; with huNav1.7α+β1-β2-β3 [6] it was 66 nM; in the assay with huNav1.7α+β1-β2-β3 [7] it was 37 nM; in assay [8] it was 34 nM; with huNav1.7α+β1-β2-β3 [12], 77 nM. The “Bmax relative to '535” value in the assay with huNav1.7α+β1 [11] was found to be 34%.

B5: F0103387G04 (parental)-FLAG-HIS6 (VHH)
VHH: EVQLVESGGGLAQPGGSLRLSCAASGPVFNINKMAWYRRAPGKQRELVASVTPTGSISYTDSVKGRFTISRDGSKRWSLQMNSLTPEDTAVYYCNALLQPDSYSNTRTYWGQGTLVTVSS
notes: also called F01033387G04
Turning to B5, in the assay with rhNav1.7α, the “2-pulse IC50 [M], P1” value turned out to be 7e-06 M. For the same molecule, the “2-pulse IC50 [M], P2” value with rhNav1.7α was 3e-06 M. Further, the values for the binding result (with huNav1.8α; with huNav1.5α+β1-β2-β3; in [10]) were “no binding”, “no binding” and “binds”, respectively.

The values are drawn from patent US20240002497A1 (Merck Sharp & Dohme, published 2024).
